Positions count from the first letter of the chain named. Names may count otherwise.
B1: LaG24_(Q68K) (VHH)
VHH: DVQLVESGGGLVQPGGSLRLSCAASGEIASIIAIGWYRQAPGKQRESVALITRSGMITYGDSAKGRFTISRDDAKNTVYLHMDDLVPEDTAVYYCNAKKVSFGDYWGQGTQVTVSG
B2: LaG24_(H85Q) (VHH)
VHH: B1 VHH with K64Q, H81Q
B3: LaG21 (VHH)
VHH: QVQLVESGGGLVQAGGSLRLSCAASGPTGAMAWFRQAPGMEREFVGGISGSETDTYYADFVKGRLTVDRDNVKNTVDLQMNSLKPEDTAVYYCAARRRVTLFTSRADYDFWGQGTQVTVSG
B4: LaG43 (VHH)
VHH: DVQLVESGGGLVQPGGSLRLSCEASGGAFSTVAMGWFRQAPGKEREFVGAITWTAGSTYYADSAKGRFTISRDNAKNTVHLQMNSLKPEDTAVYYCAQRVRGFFGPLRTTPSWYEYWGQGTQVTVSG
B5: LaG16 (VHH)
VHH: QVQLVESGGRLVQAGDSLRLSCAASGRTFSTSAMAWFRQAPGREREFVAAITWTVGNTILGDSVKGRFTISRDRAKNTVDLQMDNLEPEDTAVYYCSARSRGYVLSVLRSVDSYDYWGQGTQVTVSG
B6: LaG19_(S102R) (VHH)
VHH: QVQLVESGGGLVQAGGSLRLSCAASGPTGAMAWFRQAPGKEREFVGGISRSGTDTYYVDSVKGRFTIDRDNAKNTVYLQMNSLKPEDTAVYYCAARRRQILFTSRTDYEFWGQGTQVTVSG
B7: LaG41 (VHH)
VHH: DVQLVESGGGLVQAGGSLRLSCAASGPTGAMAWFRQAPGKEREFVGGISGSETDTYYVDSVKGRFTVDRDNVKNTVYLQMNSLKPEDTAVYYCAARRRITLFTSRTDYDFWGRGTQVTVGL
B8: LaG21_(L69F) (VHH)
VHH: B3 VHH with L65F
B9: S1–8 (VHH)
VHH: QVQLVESGGGLVQAGGSLRLSCAASGRVLSSYVMGWFRQAPGKEREFVAAIRWNGGSTFYADSVKGRLTISRDNAKNTVYLQMNSLKPEDTAAYYCAASPRTMYDATYYYSRTSYDYWGQGTQVTVS

Target: Green Fluorescent Protein (Aequorea victoria, laboratory variant …)
Test: SPR

| Binder | fold increase in affinity over wildtype LaG24 [fold] | Kd [nM] |
| --- | --- | --- |
| B1 | ~10 |  |
| B2 | > 10 |  |
| B3 |  | 7 |
| B4 |  | 11 |
| B5 |  | 0.7 |
| B6 |  | 0.6 |
| B7 |  | 0.9 |
| B8 |  | 0.7 |

Target: SARS-CoV-2 spike S1 (SARS-CoV-2, wild type (Wuhan-Hu-1), UniProt P0DTC2)
Test: SPR

| Binder | Kd [nM] |
| --- | --- |
| B9 | 3.8 |
